The source of these data is patent US20250188176A1.

This assay deals with canine IL-4RA (construct not given) (canine). The experiment in a line: SPR, IL-4RA immobilised, periplasmic Fab.

Residue numbers refer to the chain shown, from its start.

B1: FJ2246MP07H09 (Fab, V domains shown)
VH: EVQLVESGGDLVKPGGSLRLSCVASGFTFRDYAMTWVRQAPGKGLQWVSLINGSGGKTYYADAVKGRFTISRDNAKNTLYLQMNSLRAEDTAVYYCAVDRLTKTIRPQYYGLWSWGQGTLVTVSS
VL: DIVMTQTPLSLSVSPGETASISCRSSQSLLYSIGYNYLDWYLQKPGQSPQGLIYLGSKRASGVPDRFSGSGSGTDFTLRISRVEANDTGVYYCMQGLQSPLTFGQGTKLEIKR
Consider B1, for which the Improvement over parental turned out to be 5.4 fold, the RU max came to 509 RU and the koff amounted to 5.23e-05 s⁻¹.

B2: FJ2246MP10B12 (Fab, V domains shown)
VH: B1 VH with N52S, S114V
VL: DIVMTQTPLSLSVSPGETASISCRSSQSLLYSIGYNYLDWYLQKPGQSPQGLIYLGSKRASGVPDRFSGSGNGTDFTLRISRVEAEDTGVYYCMQGLHSPLSFGQGTKLEIK
In the case of B2, the Improvement over parental was determined as 3 fold, the RU max stood at 304 RU and the off-rate constant (koff) was determined as 9.41e-05 s⁻¹.

B3: FJ2246MP06A09 (Fab, V domains shown)
VH: B1 VH with S54N, G56S, S114V
VL: B1 VL
As to B3, the Improvement over parental stood at 2.6 fold, the RU max came to 152 RU and the koff amounted to 0.000106 s⁻¹.

B4: FJ2246MP10A09 (Fab, V domains shown)
VH: B1 VH with N52S, S114V
VL: B2 VL with N72S
With B4, the Improvement over parental is 3.1 fold, the RU max came out at 437 RU and the koff was determined as 8.91e-05 s⁻¹.

B5: FJ2246MP06D11 (Fab, V domains shown)
VH: B1 VH with S114V
VL: B1 VL
As to B5, the Improvement over parental was 2.1 fold, the RU max came to 146 RU and the koff was determined as 0.000132 s⁻¹.

B6: FJ2246MP06H07 (Fab, V domains shown)
VH: B1 VH with S54T, S114A
VL: B1 VL
As for B6, the Improvement over parental was determined as 3.7 fold, the RU max stood at 568 RU and the koff worked out at 7.5e-05 s⁻¹.

B7: FJ2246MP06D01 (Fab, V domains shown)
VH: B1 VH with T28P, I51V, G56S, S114V
VL: B1 VL
For B7, the Improvement over parental came to 3.6 fold, the RU max was found to be 323 RU and the koff is 7.72e-05 s⁻¹.

B8: FJ2246MP06F01 (Fab, V domains shown)
VH: B1 VH with G56T, S114V
VL: B1 VL
As for B8, the Improvement over parental was 2.5 fold, the RU max was found to be 199 RU and the koff came to 0.000112 s⁻¹.

B9: FJ2246MP05A03 (Fab, V domains shown)
VH: B1 VH with F27L, T28P, T35A, N52S, S114V
VL: B1 VL
On to B9, for which the Improvement over parental is 2.3 fold, the RU max is 400 RU and the koff is 0.000124 s⁻¹.

B10: FJ2246MP10F04 (Fab, V domains shown)
VH: B1 VH with N52S, S114V
VL: B2 VL with Q27K, N72S, E86D, S102T
Consider B10, for which the Improvement over parental is 3.1 fold, the RU max turned out to be 292 RU and the koff came to 9.16e-05 s⁻¹.

B11: FJ2246MP06C02 (Fab, V domains shown)
VH: B1 VH with S54D, G56S, T58V, S114V
VL: B1 VL
For the molecule B11, the Improvement over parental worked out at 2.2 fold, the RU max was 272 RU and the koff was 0.000126 s⁻¹.

B12: FJ2246MP10H03 (Fab, V domains shown)
VH: B1 VH with N52S, S114V
VL: B2 VL with N72S, H98R
Consider B12, for which the Improvement over parental turned out to be 2.2 fold, the RU max amounted to 243 RU and the koff worked out at 0.000126 s⁻¹.

B13: FJ2246MP10A10 (Fab, V domains shown)
VH: B1 VH with N52S, S114V
VL: B2 VL with N72S, S102T
Turning to B13, the Improvement over parental stood at 2.2 fold, the RU max stood at 369 RU and the off-rate constant (koff) amounted to 0.000126 s⁻¹.

B14: FJ2246MP06C10 (Fab, V domains shown)
VH: B1 VH with S114V
VL: B1 VL
With B14, the Improvement over parental worked out at 2.1 fold, the RU max came out at 135 RU and the koff was 0.000133 s⁻¹.

B15: FJ2246MP10H11 (Fab, V domains shown)
VH: B1 VH with N52S, S114V
VL: B2 VL with N72S, E86N
Regarding B15, the Improvement over parental is 2.8 fold, the RU max was 261 RU and the koff amounted to 9.9e-05 s⁻¹.

B16: FJ2246MP06H01 (Fab, V domains shown)
VH: B1 VH with S54D, G55A, G56S, S114V
VL: B1 VL
As to B16, the Improvement over parental worked out at 2.6 fold, the RU max was 225 RU and the koff was 0.000106 s⁻¹.

B17: FJ2246MP10B07 (Fab, V domains shown)
VH: B1 VH with N52S, S114V
VL: B2 VL with N72S, S102T
Consider B17, for which the Improvement over parental stood at 2.2 fold, the RU max was found to be 252 RU and the off-rate constant (koff) was 0.000125 s⁻¹.

B18: FJ2246MP06D12 (Fab, V domains shown)
VH: B1 VH with S54N, G55S, S114V
VL: B1 VL
Take B18: the Improvement over parental is 2.7 fold, the RU max is 154 RU and the off-rate constant (koff) came out at 0.000102 s⁻¹.

B19: FJ2246MP07A10 (Fab, V domains shown)
VH: B1 VH with I105V
VL: B1 VL
For the molecule B19, the Improvement over parental turned out to be 3.4 fold, the RU max is 614 RU and the off-rate (koff) was 8.18e-05 s⁻¹.

B20: FJ2246MP10B02 (Fab, V domains shown)
VH: B1 VH with N52S, S114V
VL: B2 VL with N72S, E86N, S102T
As for B20, the Improvement over parental was found to be 2.2 fold, the RU max stood at 202 RU and the koff was found to be 0.000127 s⁻¹.

B21: FJ2246MP06G08 (Fab, V domains shown)
VH: B1 VH with S54N, G56S, S114V
VL: B1 VL
For the molecule B21, the Improvement over parental is 3.1 fold, the RU max came out at 199 RU and the koff worked out at 9.01e-05 s⁻¹.

B22: FJ2246MP10G07 (Fab, V domains shown)
VH: B1 VH with N52S, S114V
VL: B2 VL with N72S, E86D, S102T
For the molecule B22, the Improvement over parental came out at 2.5 fold, the RU max is 372 RU and the koff was determined as 0.000111 s⁻¹.

B23: FJ2246MP06E01 (Fab, V domains shown)
VH: B1 VH with S114V
VL: B1 VL
In the case of B23, the Improvement over parental amounted to 2.4 fold, the RU max is 152 RU and the off-rate constant (koff) worked out at 0.000119 s⁻¹.

B24: FJ2246MP06C01 (Fab, V domains shown)
VH: B1 VH with S54N, S114V
VL: B1 VL
For B24, the Improvement over parental turned out to be 2.3 fold, the RU max amounted to 160 RU and the koff came to 0.000122 s⁻¹.

B25: FJ2246MP06E12 (Fab, V domains shown)
VH: B1 VH with S54N, S114V
VL: B1 VL
In the case of B25, the Improvement over parental stood at 2.9 fold, the RU max was found to be 127 RU and the dissociation rate constant (koff) was 9.66e-05 s⁻¹.

B26: FJ2246MP05F12 (Fab, V domains shown)
VH: B1 VH with T28P, S114V
VL: B1 VL
As to B26, the Improvement over parental worked out at 3.2 fold, the RU max amounted to 208 RU and the koff was found to be 8.83e-05 s⁻¹.

B27: FJ2246MP07A09 (Fab, V domains shown)
VH: B1 VH with L112M
VL: B1 VL
As to B27, the Improvement over parental came to 4.2 fold, the RU max amounted to 252 RU and the dissociation rate constant (koff) was 6.73e-05 s⁻¹.
